# B1: BD-236, germline format at residue 27 (reverse mutation) (antibody, V domains shown)
# VH: EVQLVESGGGLIQPGGSLRLSCAASGFTVSSNYMSWVRQAPGKGLEWVSVIYSGGSTDYADSVKGRFTISRDKSKNTLYLQMNSLRAEDTAVYYCARDLGEAGGMDVWGQGTTVTVSS
# VL: AIQLTQSPSSLSASVGDRVTITCRASQGISSYLAWYQQKPGKAPKLLIYAASTLQSGVPSRFSGSGSGTDFTLTISSLQPEDFATYYCQQLNSYPPAFGGGTKVEIK
# notes: as the heavy chain of m10 (PDB 7CHB) with residue 27 reverted to the germline F; as the light chain of m10
# B2: COVOX-222, germline format at residue 27 (reverse mutation) (antibody, V domains shown)
# VH: EVQLVESGGGLIQPGGSLRLSCAASGFTVSSNYMSWVRQAPGKGLEWVSVIYSGGSTFYADSVKGRFTISRDNSKNTLYLQMNSLGAEDTAVYYCARGEGSPGNWFDPWGQGTLVTVSS
# VL: DVVMTQSPGTLSLSPGERATLSCRASQSVPSSYLAWYQQKPGQAPRLLIYGASTRATGIPDRFSGSGSGTDFTLTISRLEPEDFAVYYCQHYDTSPRFGGGTKVDIK
# notes: as the heavy chain of m12 (PDB 7NX6) with residue 27 reverted to the germline F; as the light chain of m12; also called germline format of COVOX-222
# Molecular target: T1, SARS-CoV-2 receptor-binding domain (RBD) (SARS-CoV-2, ancestral (Wuhan-Hu-1) …, UniProt P0DTC2)
# T1 construct: also called SARS-CoV-2 RBD
# Assay: not stated; binding affinities of the residue-27 germline revertants of BD-236, COVOX-222 and CV30 (supplementary Fig. S5); method not named in the sentence (BLI in the experiments around it)
Binder,fold decrease of affinity against BD-236 [fold],fold decrease of affinity against COVOX-222 [fold]
B1,1.37,
B2,,2.02

# Source: publication PMC9045774, “The prominent role of a CDR1 somatic hypermutation for convergent IGHV3-53/3-66 antibodies in binding to SARS-CoV-2” (Emerging Microbes & Infections, 2022)
